Source: the nanobody polyreactivity screen of Harvey et al. (2022)

Assay: yeast display, Sf9 membrane polyspecificity reagent, FACS + sequencing; frameworks hold sequencing errors
In short: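 Nanobodies from a synthetic yeast display library (Saccharomyces cerevisiae BJ5465), induced 36–48 hours with galactose, were stained 1 hour at 4 °C with 10% biotinylated, detergent-solubilized Sf9 membrane reagent, enriched on streptavidin microbeads, then FACS-sorted. Anti-HA (expression) and streptavidin (reagent binding) fluorescence set low and high (top ~1%) gates. Polyreactivity labels come from the gate of origin. Genes were colony-PCR amplified, MiSeq 2 × 250 sequenced and filtered by CDR length.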

Sequence	polyreactivity (PSR sort gate)
QVQLVESGGGLVQAGGSLRLSCAASASIFAYKAIGWYRQAPGKESELVASITNGGSTYYADSVKGRFTISRDNAKNTVYLQMNSLKQEDTAVYYCNTDFDVYSVGYDGYWGQGTQVTVSS	low polyreactivity
QVQLVESGGGLVQAGGSLRLSCAASGSTFTYYAMGWYRQAPGKERELVAAITFRGDSTYYADSVKGRFTISRDNAKNTVYLQMNSLKPEDTAVYYCNADSISSTYYDEDYWGQGTQVTVSS	low polyreactivity
QVNLVDSGGGLVQAGGSLRLSCAASGSTFRNNAMGWSRQAPGKERELVAVITGDGGSTYYADSVKGRFTISRDNAKNTVYLQMNSLKPEDTAVYYCNARSIRYYRFRLRFGYWGQGTQVTVSS	low polyreactivity
QVQLVESGGGLVQAGGSLRLSSAASGRIIRAYAMGWYRQAPGKERELVADISGGSNTNYADSVKGRFTISRDNAKNTVYLQMNSLKPEDTAVYYCAADAGYWESLWYPYGFYWGQGTQVTVSS	low polyreactivity
QVQLVESGGGLDQAGGSHRLSCAASGRIFYIYTMGWYRQPPGKEREFVAGINWNGGSTYYADSVKGRFTISRDNAKNTVYLQMNSLKPEVTAVYYCNADQYWDRYYYWGQGTQVTVSS	low polyreactivity
QVQLVESGGGLVQAGGSLRLSCAASGSIFDVNTMGSYRQAPGKETELGASITSSGSTYYADSVKGRFTISRDNAKNTVYLQMNSLKPEDTAVYYCAATPIGQHFTLDYWGQGTQVTVSS	low polyreactivity
QVQLVESGGGLVQAGCSLRLSSAASGTIFGYYTMGRYRQAPGKEREIVAAISRSGGSTYYADSVKGRFTISRDNAHNTGYLQMNSLKPEHTAVYYCNADVYWEYDYWGQGTQVTVSS	low polyreactivity
QVQLVESGGGLVQAGGSLRLSCAASGSTFVINAMGWYRQAPGKERELVADIDYRGGSTNYADSVKGRFTISRDNAKNTVYLPMNSLKPEDTAVYYCNKRYVIRRRGYDYWGQGTQVTVSS	low polyreactivity
QVQLVESGGGLVQAGGSLRLSCAASGSTFYVYAMGWYRQAPGKERELVAAITSGTSTYYADSVKGRFTISRDNAKNTVYLQMNSLKPEDTAVYYCAAYSYYYRFPYYYWGQGTQVTVSS	high polyreactivity
QVQLVESGGGLVQAGGSLRLSCAASGFTFKYYVMGSYRQAPGKERFVAAITGSGASTYYADSVKGRFTISRDNAKNTVFLQMNSLKPEETAVYYCNADYYAGRYRYDYWGQGTQVTVSS	high polyreactivity
QVQLVESGGGLVQAGGSLRLSCAASGRTFRYNAMGWYRQAPGKERELVADITFSGGNTYYADSVKGRFTISRDNAKNTVYLQMNSLKPEDTAVYYCAKRRYYTGGMDYWGQGTQVTVSS	low polyreactivity
QVQLVESWGGLDQAGGSLRLSCAASGSTFYAYAMGWYRPAPGKERELVAAISSDGTNYADSVKGRFTISRDNAKNTVYLQMNSLKPEDTAVYYCAADLLLYSSQDNDFWGQGTQVTVSS	low polyreactivity
QVQLVESGGGLVQAGGSLRFSCAASGFIFSFYAMGWYRQAPGKERELVAAISSSGSTNYADSVKGRFTISRDNAKNTVYLQMNSLKPEDTAVYYCAARWHRSRAGYYYWGQGTQVTVSS	high polyreactivity
QVQLVESGGGLVQAGGSLRLSCAASGLTFVFYAMGWYRQAPGNERELVAAISWSTGRTYYADSVKGRFTISRDNAKNTVYLQMNSLKPEDTAVYYCAASYLGRKYDYWGQGTQVTVSS	high polyreactivity
QVQLVESGGGLVQAGGSLRLSCAASGSTLPGNVMGWYRQAPGKERELVAAISWTGGSTYYADSVKGRFTISRDNAKNTVYLQMNSLKPEDTAVYYCAVDAYESPWWSDPYEYWGQGTQVTVSS	low polyreactivity
QVQLVESGGGLVQAGGSLRLSCDASGSIFYGYAMGWYRQAPGKERELVASITGSGGSTSYADSVKGRFTISRDNAKKTVYLQMNSLKPEDTAVYYCNTVLLQLYKLASGFDYWGQGTQVTVSS	high polyreactivity
QVQLGESGGGLVQAGGSLRLSCAASGFTFAYYAMGWYRQAPGKERELVAAISERGGSTYYADSVKGRFTISRDNAKNTVYLQMNILKPEDTAVYYCARTFWDYPWYQSSYYSWGQGTQVTLSS	low polyreactivity
QVQLVESGGGLVQAGGILRLSCDASGRIFYSYAMGWYRQAHGKERVLVAAIDESVGSKYYADSVKGRFTISRDNAKNTVYLHMNSLKREDTAVYYCAADYLLVLFYYWGQGTQVTVSS	low polyreactivity
QVQLGESGGGLVQAGGSLRLSCAASGSIFGGNTKGWYRQAPGKERELVAAINGGVTTNYADSVKGRFTISRDNAKNTVYLQMNSLKPEDTAVYYCNAVDFGPVVLRLYYWGQGTQVTVSS	low polyreactivity
QVQLVESGGGLVQAGGSLRLICAASGSIFNYYAMGWYRQAPGKERELVAGITTSGGSTYYADSVKGRFTISRDNAKNTVHLQMNSLKPEDTAVYYCAAYDYISSTYFLDDYWGQGTQVTVSS	low polyreactivity
QVHSVESGGGLVQAGGSLRLSCSASGIIFYSYAMGWYRQAPGKERELVAGITIVGSTIYADSVKGRFTISRDNPKTTVYLQMISLKAEATAVYYCNKADLHFIEMDYWGQATQVTVSS	low polyreactivity
QVELVESGGGLVQPGGRLRLSCAASGFTFNYYAMGWYRQAPGKEREFVAAISRGGGRTYYADSVKGRFTISRDNAKNTVYLQMNSLKPEDTAVYYCAAQSVPYAYRLASYDYWGQGTQVTVSS	high polyreactivity

Sequence	polyreactivity (PSR sort gate)
QVQLVESGGGLVQAGGSLRLSCAASGSIFRSYAMGWYRQAPGKERELVAAISSSSGSTYYADSVKGRFTISRDNAKNTVYLQMNSLKPEDTAVYYCAARSRIGNNGYEYWGQGTQVTVSS	low polyreactivity
QVQLVESAGCLVQAGGSLRLSCAASGRTFAVYAMGWSRPAPGKQREMVAAITLGASRSYYADSVKGRFTISRDNAKNTVYLQMNRLKPEDSAVYYWNDVGRLNVDSYLNDYWGKGTQVTVSS	low polyreactivity
QVQLVESGGGLVQAGGSLRLSCAASRSIFRIYAMGWYRQAPGKERELVAGISKSGGSTYYADSVKGRFTISRDNAKNTVYLQMNSLKPEDTAVYYCNAGYNWSGLAVGRYGYDSWGQGTQVTVSS	low polyreactivity
QVQLVESGAGLVQAGGSLRLSCAASVSIFDIYAMGWYRQAPGKERELVADISWSGGSTYYADSVKGRFTISRDNAKNSVYLQMNSLKPEDTAVFDCAAELYGFTVDPGDYWGQGTQVTVSS	low polyreactivity
QVQLVESGGGLVQAGGSLRLSCAASGRTFYKNAMGWYRQAPGKERELVAAISYGGGSTYYADSVKGRFTISRDNAKNTVYLQMISLKPEDTAVYYCATQLPFRKPWHDYWGQGTQVTVSS	high polyreactivity
QVRLVESGGGLVQAGGSLRLSCAASGSTFKTYAMGWYRQAPGKERELVAAISAGGGSTYYADSVKGRFTISRDNAKNTVYLQMYSLKPEDTAVYYCAAAYIYAGWDYEYWGQGTQVTVSS	low polyreactivity
QVQLVESGGGLDQAGGSLRLSCAASGFIFGRYTMVWYRPAPGKEMELVAAISRGGITNYADSEKGRFTISRDNAKNTVYLQMNSLKPEDTAVYYCATTRDYWRGRSYYYWGQGTQVTVSS	high polyreactivity
QVQLVESGGGLVQAGGSLRLSCAASGFTLDWYVMGWYRQAPGKDRELVAAISSSGGRTYYADSVKGRFTISRDNAKNTVYLQMNSLKPEDTAVYYCAARNKYGGYPYGYDYWGQGTQVTVSS	high polyreactivity
QVQLVESGGGLVQAGGSLRLSCAASGITFYRYAMGWYRQAPGKERELVAAISRSGGSTYYADSVKGRFTISRDNAKNTVYLQMNSLKPEDTAVDYCAAYILGNRDGYDYWGQGTQVTVSS	high polyreactivity
QVQLVESGGGLVQAGGSLRLSCAASGLIFYYYAMGWYRQAPWKEREFVAAISRSGGIKRYADSVKGRFTISRDNAKNTVYLQMNSLKPEDTAVYYCAARYYYRHAQSFPWSNRWSSYYYWGQGTQVTVSS	high polyreactivity
QVQLVESGGGLVQAGGSLRLSCAASGGILDTYAMGWDRQAPGKERELVAAITSGGNTNYADSVKGRFTISRDNAKNTFYLQMNSLKPEDTAVYFCNVVSWYYFFRPWEYDYWGQGTQVTVSS	low polyreactivity
QVQLVESGGGLVQAGGSLRLSCAASGITFVRYTMGWYRQAPGKEREFVAGITRGGSTYYADSVKGRFTISRDNAKNTVYLQMNSLKPEDTAVYYCAARPRFLRASVEYDYWGQGTQVTVSS	high polyreactivity
QVQLVESGGGLVQAGGSLRLSCAASGFTFGTYAMGWYRQAPGKERELVAAISKRGGSTYYADSVKGRFTISRDNAKNTVYLQMNSLKPEDTAVYYCATGSYTTYGYGYWGQGTQVTVSS	high polyreactivity
QVQLVESGGGLVHAGGSLRLSCAASGRIFTWNAMGWYRQAPGKERELVARISSGTRTNYADSVKGRFTISRDNAKNTVYLQMNSLKPEDTAVYYCAAGYYYGYPPRDYWGQGTQVTVSS	high polyreactivity
QVQLVESGGGLVQAGGSLRLSCAASGRTFGYYAMGWYRQAPGKERELVAAISRSGSRTYYADSVKGRFTISRDNAKNTVYLQMNSLKPEDTAVYYCNKVKEFYVPTEYDYWGQGTQVTVSS	high polyreactivity
QVQLVESGGGLVQAGGSLRLSCAASGLTFRANAMGWYRQAPGKERELVAAISWRGGGTYYADSVKGRFTISRDNAKNTVYLQMNSLKPEDTAVYYCDAKTQNAYYWGQGTQVTVSS	low polyreactivity
QVQLVESGGGLVQAGGSLRLSCAASGRIFGFNAMGWYRQAPGKERELVAGITDSSGRTNYADSVKGRFTISRDNAKNTVYLQMNSLKPEDTAVYYCAKASAYGLANDYDYWGQGTQVTVSS	low polyreactivity
QVQLVESGGGLVQAGGSLRLSCAASGSTFSYNAMGWYRQAPGKERELVAAISRSGGSTYYADSVKGRFTISRDNAKNTVYLQIKSLKPEFTAVYYFAADSPYGYYEGDYWGQGTQVTVSS	low polyreactivity
QVQLVESGGGLVQAGGSLRLSCAASGSIFYHNAMGWYRQAPGKERELVAAITWSGSTTYYADSVKGRFTISRDYAKNTVYLQMNSLKPEDTAVYYCNAGNRHGHYDYYWGQCTQVTVSS	low polyreactivity
QVQLVESGGGLVQAGGSLRLSCATSGSIFVFNAMGWYRQAPGKERELVAAIDTSDDITYYADSVKGRFTISRDNAKNTVYLQMNSLKPEDTAVYYCNAETYGLVPYYIYHYEFDYWGQGTQVTVSS	high polyreactivity
QVQLVESGGGLVQAGGSLRLSCAASGRTFYRYAMGWSRQAPGKERELVATISGSGGSTYYADSVKGRFTISRDNAKNTVYLQMNSLKPEDTAVYYCNAVWRFPIGRTAPRYDYWGQGTQVTVSS	high polyreactivity
